Experimental findings from patent US20090280138A1 (OXFORD BIOMEDICA UK, published 2009) are described below.

In test [1] the target is T1, MHC class I molecule HLA-B*0702 (iTopia plate-bound monomer) (biotin (bound to streptavidin-coated plate)).
T1 construct: Commercial iTopia system; also called B7
Put plainly: iTopia off-rate assay, 37 C; fit R^2 0.36. The procedure: (§1) The 9 mers were tested for Peptide Binding, Off Rate and Affinity using iTopia Epitope Discovery System in accordance with the manufacturer's instructions. Briefly, 96 well microtitre plates coated with MHC molecules representing different MHC alleles are used to identify candidate peptides. […] Determinations are performed in duplicate using an ELISA plate reader and included allele specific positive controls.
(§2) A one-phase exponential decay curve, with a plateau given equal to 0, was generated using GraphPad Prism® software, which calculated the t1/2 and goodness-of-fit, as measured by r², for each peptide.

In test [2] the target is T2, MHC class I molecule HLA-A*0201 (iTopia plate-bound monomer) (biotin (bound to streptavidin-coated plate)).
T2 construct: also called A2
As to the kind of experiment: iTopia off-rate assay, 37 C; fit R^2 0.72. The procedure: as §1, §2

Test [3] has as its target T1, MHC class I molecule HLA-B*0702 (iTopia …). Put plainly: iTopia off-rate assay, 37 C; fit R^2 0.68. How it is done:
as §1, §2

Test [4] has as its target T2, MHC class I molecule HLA-A*0201 (iTopia …). As to the kind of experiment: iTopia off-rate assay, 37 C; fit R^2 0.77. The procedure:
as §1, §2

The target is the same in test [5]. As to the kind of experiment: iTopia off-rate assay, 37 C; fit R^2 0.83. The procedure:
as §1, §2

Test [6] shares this target. As to the kind of experiment: iTopia off-rate assay, 37 C; fit R^2 0.68. The procedure: as §1, §2
The target is the same in test [7]. Put plainly: iTopia off-rate assay, 37 C; fit R^2 0.96. The procedure: as §1, §2
In test [8] the target is T1, MHC class I molecule HLA-B*0702 (iTopia …). As to the kind of experiment: iTopia off-rate assay, 37 C; fit R^2 0.23. How it is done:
as §1, §2

For test [9] the target is unchanged. Put plainly: iTopia off-rate assay, 37 C; fit R^2 0.02. How it is done:
as §1, §2

Test [10] addresses T2, MHC class I molecule HLA-A*0201 (iTopia …). Put plainly: iTopia off-rate assay, 37 C; fit R^2 0.67. The procedure: as §1, §2
For test [11] the target is unchanged. Put plainly: iTopia off-rate assay, 37 C; fit R^2 0.85. The procedure:
as §1, §2

Test [12] addresses T3, MHC class I molecule HLA-A*0301 (iTopia plate-bound monomer) (biotin (bound to streptavidin-coated plate)).
T3 construct: also called A3
As to the kind of experiment: iTopia off-rate assay, 37 C; fit R^2 0.94. How it is done: as §1, §2

In test [13] the target is T1, MHC class I molecule HLA-B*0702 (iTopia …). As to the kind of experiment: iTopia off-rate assay, 37 C; fit R^2 0.79. The procedure: as §1, §2
Test [14] addresses T3, MHC class I molecule HLA-A*0301 (iTopia …). As to the kind of experiment: iTopia off-rate assay, 37 C; fit R^2 0.9. How it is done:
as §1, §2

Test [15] addresses T2, MHC class I molecule HLA-A*0201 (iTopia …). As to the kind of experiment: iTopia off-rate assay, 37 C; fit R^2 0.57. The procedure: as §1, §2
Test [16] has the same target. Put plainly: iTopia off-rate assay, 37 C; fit R^2 0.65. How it is done: as §1, §2
The target is the same in test [17]. As to the kind of experiment: iTopia off-rate assay, 37 C; fit R^2 0.05. How it is done:
as §1, §2

Test [18] has as its target T1, MHC class I molecule HLA-B*0702 (iTopia …). Put plainly: iTopia off-rate assay, 37 C; fit R^2 0.15. The procedure:
as §1, §2

Test [19] concerns the target T2, MHC class I molecule HLA-A*0201 (iTopia …). Put plainly: iTopia off-rate assay, 37 C; fit R^2 0.95. The procedure:
as §1, §2

Test [20] deals with T4, MHC class I molecule HLA-A*0101 (iTopia plate-bound monomer) (biotin (bound to streptavidin-coated plate)).
T4 construct: also called A1
Put plainly: iTopia off-rate assay, 37 C; fit R^2 0.88. The procedure:
as §1, §2

The target in test [21] is T3, MHC class I molecule HLA-A*0301 (iTopia …). As to the kind of experiment: iTopia off-rate assay, 37 C; fit R^2 0.58. The procedure:
as §1, §2

In test [22] the target is T2, MHC class I molecule HLA-A*0201 (iTopia …). Put plainly: iTopia off-rate assay, 37 C; fit R^2 0.9. The procedure:
as §1, §2

The target in test [23] is T3, MHC class I molecule HLA-A*0301 (iTopia …). As to the kind of experiment: iTopia off-rate assay, 37 C; fit R^2 0.95. How it is done: as §1, §2
The target in test [24] is T1, MHC class I molecule HLA-B*0702 (iTopia …). As to the kind of experiment: iTopia off-rate assay, 37 C; fit R^2 0.66. The procedure:
as §1, §2

Test [25] addresses T2, MHC class I molecule HLA-A*0201 (iTopia …). Put plainly: iTopia off-rate assay, 37 C; fit R^2 0.59. How it is done: as §1, §2
Test [26] shares this target. Put plainly: iTopia off-rate assay, 37 C; fit R^2 0.74. The procedure:
as §1, §2

For test [27], the target named is T4, MHC class I molecule HLA-A*0101 (iTopia …). Put plainly: iTopia off-rate assay, 37 C; fit R^2 0.97. How it is done: as §1, §2
In test [28] the target is T3, MHC class I molecule HLA-A*0301 (iTopia …). As to the kind of experiment: iTopia off-rate assay, 37 C; fit R^2 0.88. The procedure: as §1, §2
The target of test [29] is T2, MHC class I molecule HLA-A*0201 (iTopia …). As to the kind of experiment: iTopia off-rate assay, 37 C; fit R^2 0.82. The procedure:
as §1, §2

Test [30] shares this target. As to the kind of experiment: iTopia off-rate assay, 37 C; fit R^2 0.66. How it is done: as §1, §2
For test [31], the target named is T1, MHC class I molecule HLA-B*0702 (iTopia …). Put plainly: iTopia off-rate assay, 37 C; fit R^2 0.22. How it is done: as §1, §2
For test [32], the target named is T2, MHC class I molecule HLA-A*0201 (iTopia …). Put plainly: iTopia off-rate assay, 37 C; fit R^2 0.79. The procedure: as §1, §2
Test [33] concerns the target T4, MHC class I molecule HLA-A*0101 (iTopia …). As to the kind of experiment: iTopia off-rate assay, 37 C; fit R^2 0.87. How it is done: as §1, §2
The target in test [34] is T2, MHC class I molecule HLA-A*0201 (iTopia …). As to the kind of experiment: iTopia off-rate assay, 37 C; fit R^2 0.91. How it is done: as §1, §2
Test [35] shares this target. As to the kind of experiment: iTopia off-rate assay, 37 C; fit R^2 0.02. How it is done: as §1, §2
For test [36] the target is unchanged. As to the kind of experiment: iTopia off-rate assay, 37 C; fit R^2 0.6. How it is done:
as §1, §2

Test [37] shares this target. Put plainly: iTopia off-rate assay, 37 C; fit R^2 0.63. How it is done: as §1, §2
Test [38] deals with T1, MHC class I molecule HLA-B*0702 (iTopia …). Put plainly: iTopia off-rate assay, 37 C; fit R^2 0.84. How it is done: as §1, §2

As for ADPRLTNLS (also called Peptide No 204) [5T4 9-mer peptide 204 ADPRLTNLS], the t½ half life in test [1] amounted to 3.1 h. For the molecule LSHNPLADL (also called Peptide No 75) [5T4 9-mer peptide 75 LSHNPLADL], in test [2], the t½ half life was 1.3 h.

On to LQGLRRLEL [5T4 9-mer peptide 105 LQGLRRLEL], for which the t½ half life turned out to be 0.2 h in [3] and 2.1 h in [4]. RNLTHLESL (also called Peptide No 128) [5T4 9-mer peptide 128 RNLTHLESL] yielded a t½ half life in test [5] of 0.9 h. In the case of RDACRDHME (also called Peptide No 195) [5T4 9-mer peptide 195 RDACRDHME], the t½ half life in test [6] is 3 h.

Turning to FEGMVVAAL (also called Peptide No 98) [5T4 9-mer peptide 98 FEGMVVAAL], the t½ half life in test [7] was determined as 1.1 h. For SPTSSASSF (also called Peptide No 17) [5T4 9-mer peptide 17 SPTSSASSF], in test [8], the t½ half life was found to be 2.6 h.

Take APFLASAVS (also called Peptide No 23) [5T4 9-mer peptide 23 APFLASAVS]: the t½ half life was 2.6 h in test [9] and 1.6 h in test [10]. For the molecule SNHFLYLPR (also called Peptide No 110) [5T4 9-mer peptide 110 SNHFLYLPR], the t½ half life in test [11] was found to be 1.2 h; in test [12], 0.9 h. On to YLNRKGIKK (also called Peptide No 188) [5T4 9-mer peptide 188 YLNRKGIKK], for which the t½ half life in test [13] came to 3.3 h; in test [14] it was 0.7 h; in [15], 6.5 h. Take SSFSSSAPF (also called Peptide No 20) [5T4 9-mer peptide 20 SSFSSSAPF]: the t½ half life in test [16] was 0.4 h. In [7], SLVSLTYVS (also called Peptide No 123) [5T4 9-mer peptide 123 SLVSLTYVS] came in with a t½ half life of 0.9 h. In the case of IKKWMHNIR (also called Peptide No 191) [5T4 9-mer peptide 191 IKKWMHNIR], the t½ half life in test [17] was 14.6 h.

With DGRLRLARL (also called Peptide No 7) [5T4 9-mer peptide 7 DGRLRLARL], the t½ half life in test [18] was found to be 2.6 h.

As for FSSSAPFLA (also called Peptide No 21) [5T4 9-mer peptide 21 FSSSAPFLA], the t½ half life in test [19] was found to be 0.3 h; in test [20], 0.2 h.

With VLPAGAFAR (also called Peptide No 53) [5T4 9-mer peptide 53 VLPAGAFAR], the t½ half life in test [21] worked out at 0.5 h; in test [22], 2.2 h.

Regarding RLRLARLAL (also called Peptide No 8) [5T4 9-mer peptide 8 RLRLARLAL], the t½ half life in test [23] was 0.2 h; in test [24] it was 3.1 h; in test [25] it was 7.2 h.

Take HMEGYHYRY (also called Peptide No 198) [5T4 9-mer peptide 198 HMEGYHYRY]: the t½ half life is 6.3 h in test [26], 1.3 h in [27] and 1.7 h in [28]. With RHLDLSNNS [5T4 9-mer peptide 119 RHLDLSNNS], the t½ half life in test [29] stood at 1.1 h. For the molecule HFLYLPRDV [5T4 9-mer peptide 111 HFLYLPRDV], the t½ half life in test [29] was determined as 2.9 h. GGCSRGPAA (also called Peptide No 2) [5T4 9-mer peptide 2 GGCSRGPAA]: the t½ half life in test [30] stood at 0.5 h; in [31] it was 1.3 h. Molecule LDLSHNPLA (also called Peptide No 74) [5T4 9-mer peptide 74 LDLSHNPLA] came in with a t½ half life in [32] of 5.4 h. As to VPTDLPAYV (also called Peptide No 43) [5T4 9-mer peptide 43 VPTDLPAYV], the t½ half life in test [33] amounted to 1.8 h; in [34], 1.1 h.

As for SNASVSAPS (also called Peptide No 83) [5T4 9-mer peptide 83 SNASVSAPS], the t½ half life in test [35] was 15.8 h. For MHNIRDACR (also called Peptide No 193) [5T4 9-mer peptide 193 MHNIRDACR], the t½ half life in test [36] turned out to be 5.3 h.

Take LAVLPAGAF (also called Peptide No 52) [5T4 9-mer peptide 52 LAVLPAGAF]: the t½ half life in [37] was found to be 3.6 h; in test [38], 0.3 h.
